Test results reported in the domain aggregation screens of Martell et al. (2025).

Test: soluble fraction after stress (log2 fold change); higher = more stays soluble; pooled small domains, quantitative proteomics
Settings: stress: pH 4
Procedure, shortened: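 Values are log2 fold changes, and higher ones mean more of the domain stayed soluble. Each fold change reflects the soluble amount of a domain after acid stress and is taken as a measure of aggregation propensity. The stress was pH 4, applied to pooled custom libraries of small protein domains analysed by high-throughput quantitative proteomics.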

Row | Sequence | soluble fraction (log2)
1 | HMHRIKRRNDTLVSALDSIAGIGAKRKKALLQHFGSVRAIKAVSAEEIAKVEGISPTLANQIFEAL | -0.0221
2 | HMHRTMFYLDVDLAEGQSVKMAVHEDDDPGELAARFADEHQLKSRAMEKLRSVIEENVRLHRRNQ | -0.306
3 | HMHRTRNAERTRAAVLKAAAEVLAERGTGASLARIAEVAGVSKSGLLHHFANREQLIVALLED | -0.462
4 | HMHSIFPVIRSTSFPTKSNDGELFITSDHTAETRIYYALDLGNTYRLIDQKVMNEINLTESLVKETARF | -1.63
5 | HMHSILDDIEGIGPARRKALMRHYMNLDAIKSATVEELAAVPSMNEKSAKAVHNFFHQQKKD | 0.22
6 | HMHSKQRDAIFENLRSRKDHPTAEEIYLSLKPAMPAISLATVYRNLAQLENEGLILRLGSGGSARYDGDT | 0.164
7 | HMHSLGDQVFETIKELIVNNTYQPGELLQIDKLAAEFGVSTTPVREALLRLEGLGLVDIERNKAAVVT | -0.352
8 | HMHSPLLDRYLAEVGWRLRHLSGAQREDILAGLREHIADLESAGVAPEEIVARLGSPESVADAAAGEF | 0.0489
9 | HMHSPTFYVHVVGQVKVPGVYELEVGSRLFDAVIAAGGFKDDADQASVNLARPLSDGEQIVVLKLGDQ | -0.732
10 | HMHTADDFKQLAKQTSNGQLRTRYLALYLFKNGETRTQIATYLGVARGSVNTWVSNYLAHGLEGLQSKP | 0.0388
11 | HMHTSEDLEKLLTRYFQSHESINRQQFEQLSGFTRTTASRRLKALVEAGKLKNIGLHHFPVYKPTEGNF | 0.134
12 | HMHVGVWIMNEKGEILLEQRASNKKVDPNKWARIGGHVDAGEKPIQAIQREILEEIGVKIPLENFIVLET | -0.592
13 | HMHVLAVDEALHKLTELNELHAKIVEMRFFSGMTVQEVADELGVSKRKIESEWTMIKAWLRKELN | -0.916
14 | HMHVSLSGKIHSELRKLILNGELKAGERLPSEPDLAHELGVSRNSLREAIGLLQREGLLLKKHGIGTFVTD | 0.183
15 | HMHVYQSLVTDRVVPGGGYRTTEAILSTEAWRNTLLEQAKRELIGVRNKYASLTELAKVWTAIDTVT | -0.249
16 | HMHYALTVDFPAALEARIDPAHRAALRGVLAHDPRPSYQSDPERLYGVAFAGKNVKFTVEDGVLTVRKIEE | -0.267
17 | HMHYKLIIFENHTKSTSLDITPEQARQILGVTDYTPEQYEILAEITNRPASYFMDDLVDYYVD | -1.53
18 | HMHYNMNYLENLTKTELFDLAKNKFGLTYAEMERHLSIPEGGARYAIKAEHSKYGSDIKKYLVEFLLE | -0.134
19 | HMIADPAKPDWTTILAPVTTGTTVTHKTFGQGTVTKLDKTKKYLTVSFAAGQKNFVFPNAFIDGFLK | -0.105
20 | HMIADSSSIHQDAKQQLHSYLRTNIQPLMRAGKQLDLKDILHHVTIRKPKLVQQLGMKQVQHMVQVLLD | 0.184
21 | HMIAGHLQEKKGFFYIVLSYPDAAGKRKTKWFPTKLSVKGNKKKAEVMLMDARKTFVPPETPL | 0.207
22 | HMIAITVGSKVRVKAGATFSDGTKPFTEVYNTVYDVQLLSRNGKEARIGIGEQWTGWMYISDLYPADQ | 0.00391
23 | HMIAPQISSGKVNTKELNVRSGPATTFGIVKKLPLNAMVGIFEEKNGWFRIATGQWVSKTYVDL | 0.187

Row | Sequence | soluble fraction (log2)
24 | HMIAVLEEGSRFRAINDISGKPFGPEMIIKNGQVIAAGKKILTKPKKLIGKKEGTKFNISGKEYVIKDI | -0.834
25 | HMIAWNFDTMKESLSEMERVDYQEFIKAFLSLELSISDRTILNQVYQDYMDEDDLSLISDELRV | -1.4
26 | HMIDDNTIIQIGDSYSKSIRLLGEPIELKNRSLNQKSYFMAVYDFKGRRYRLFFENDVLFDILRD | -0.486
27 | HMIDELLDPTHRIMVRHPRVDYVSPGFLIGPDKDVILWGFTGGIIARLFDFLGWTRPWDQSHVQDLPPYML | -0.242
28 | HMIDENILSEEIKHYIETNNYAKDDKLPSERSLASLFNVSRALVRKSLISLVDVNYLYVKDKSGYYING | -0.52
29 | HMIDEPENLIQEDKMVNIIYDLALLEGVKTFNSSNFQSVKSNDFVYKKYKIDSLQFAKSTQFYASDINR | -0.404
30 | HMIDFDEIEILSSSKIEKIENSEYLKSSIFEKDSNQYIYRLSFENRDQLKNFKKEIEDIDQIKKIDVTY | -0.665
31 | HMIDHKVIRSFRQKRNMTLQELAQKANLSVSYLSEIELGKKQPSLETLDKLSKALNISLEGL | 0.131
32 | HMIDHLPPQRAAVLAFLQRELVAGRSPSLAEIALAFGFASRNAAQKHVQALVADGLLEQATGRSRGLRLPG | -0.235
33 | HMIDIGSKIKKLRSKKSIEIGKKYTGAMLANELGISRSYLGDIESGRTVPNEIILGKIADIFDVDIYELIG | -0.405
34 | HMIDLPEAFIQQLKEAVDVGDVTGLRELLGQLRRRYPQQSALSDEAERLLREFDFERLAQLFEGLD | -1.54
35 | HMIDNFFTIRFNYSKINEVIRLLKEFNGEIFNKNYDKNEYIIEFSIPKKDAALLISKLKNITGLTIEQ | -0.538
36 | HMIDQIAEQLQQRLAVDTAFATIQRDYPDVIANKDIELLTAIKVNQKIAEGASRASAMLESAKEVYETL | -0.329
37 | HMIDRPLTLVEDYERFAGELAKITLRFMLDGRKRFNGRLAGFDEDGKIVLETSFGRFAFSFDEIDSARI | -2.08
38 | HMIDSVFASYRQVALDDELWDKVRNGAVLPKVELFEVMDGPVLFTYQSKIVAMYEPHPTKAGYIKPRKMFL | -1.52
39 | HMIDTTKILPGQEFKNMQELSVALTGQKMPAGKGYVLQQEKFKLYFSWKKITGTHKLIIDEIYEEPKT | -0.573
40 | HMIDYIKYTVDGKTYELINNWDGTWSRELEAPLVAGRYDLLLEISQNGLVTYIDSSDPRYEFYLDVI | -2.3
41 | HMIEESTVPDLKGKSQEDAIKLLEDANLKYQIVEEESKKIEAGYVISQETDANKKVNAGDTVIIHVST | -0.0907
42 | HMIEFYTMQDMFYFKLTGDNTSRERREALGKILGIGYGNATQMVSRLNNYGISKEEFSKAIEEIEKQLEA | -1.36
43 | HMIEIKNLSFSYGKKKQSVFNDFSLTLDKGSVYGLLGKNGTGKSTLLYLMTGLLRPQAGQVLYKGVDVS | 0.159
44 | HMIEKVNDYVVRFANVNGTGSASANNLFALAIYRMGVPVTPKNIFPSNIQGLPTWFEVRVSGSGYLARRG | 0.129
45 | HMIELDRTNLLGVFGPKSRPYALLMLSNGEMIKISIGDQFFGWRVYGIDEKSIQVQNGTKQEILRIP | -1.19
46 | HMIENGILELKGKTGVAQTVLRPSGKVLIDDEIYDAVALTGYIEKADKVLVTKVEATQLYVEK | -0.289

Row | Sequence | soluble fraction (log2)
47 | HMIERLVVSPAAGVFTKKMSVENNTRIDVGHVLGHVGETEVRSPFAGILQNYIAVDGERLTAHQPIAWLRS | 0.15
48 | HMIERVLRTEEHIEAFAGEEVEAKLFAPIDGKKTLRGILGGIEDGRVILTVGDTEYRIEHAKISRLTTVFD | -0.712
49 | HMIESVMVGIKELLGDTIDQKYEKYIRLGGIPSDEVDEFNSVFSAYEKVNGNHNGKKKYDYVMNNLPIIPV | -1.54
50 | HMIETIQVPRAFNDWHEQADKTKSVFEVYAEIEASENEKLIAWVRNNQNEFAKIWLGALIPELE | -1.24
51 | HMIGHIGSAVMLNAKLRPRLPLLHVLALTQSLGERLSAAEAQPEVYRWSDPGQSRVIAEFEGGRLTRWRLE | -0.968
52 | HMIGVIVDEVDPDSSLKSGDIITEVNREVILNIDDFVGLVEQIQKTGRSSLLLKILRDKKSLWVTIQFV | 0.22
53 | HMIHQIPVNVQKIRQIIGINLNENDYLNYLAKLGFVIDEGLIIVPSFRSDVKTQNDLAEEIARV | -0.236
54 | HMIINFDAIKLTTELNKYKRHKAIPNTFFDGTYTILDVRELYNDLTPKAQKIADELIEHYNVDVK | -1.69
55 | HMIINLGELLKMLEVNKYQDAMDALDSLIEEGGSLEKIESLHEIRQHTHAMNFREAERLLSILIESEGA | -1.41
56 | HMIISPKKLEYRQRIINALGDRKMSLNELSKAMGYKGITTKLSFTVDDMIKSGVIEKVMVGAYAKLHIP | 0.22
57 | HMIIVMKRNATETQIDHVVRWVESIGYRAHRSNGTEQTVVKAVGGERGGEELKYLAALSGVEKVVPIR | 0.141
58 | HMIKDSKAAYKILGVDENATNEEIKKAYRQLVINHHPDKVSHLGEDIQRAANEKLKQINAAYDEIKKQRGF | 0.171
59 | HMIKEGDLVFIWNPKKGDSFLIKVQPGQSQGTHFGQIKHSEIMEHNYGEGIRTPKGQVYYLLRPTLGEFTR | -0.38
60 | HMIKEVGYEKFMQMTEEEDIGRVEIDQEENQITFTDKDETAIYKTGMVDDPDLTERLYDAGAEFS | -0.591
61 | HMIKIDESTLSEDELKIFEILKIEDKNIENIAIESKILPGKLLATLMNMEMKKIVVQYPGKVFGLNRKLK | 0.0566
62 | HMIKKAILPVAGLGTRFLPASKSIPKEMVTVVDRPAIEYVVREAVEAGIEQIILVTHSSKASIENYFDR | -0.217
63 | HMIKKLDIEPIIKSVVDDFNNIYKLKRGITISYLNDGKNKYFINGIENRIEQIIANLLDNSISFSEDNKDV | 0.122
64 | HMIKLSTNENTALRLVMERGLVTESELKGLFDNPVAVMESLISKMIETNTHWIHSERSENGEWVYAWQ | -1.46
65 | HMIKNDIGKFIKLYRETHQWSQRELAEHLGVSQRNVSYYEKGERIPPADVLKKLSTLFDVPVDVLLGLK | -0.274
66 | HMIKRDLAFSEFIAEVKAGQVREVTIKGNSISGNLNDGREFNTYAPNDPNLVKTLTDQGVLIRAIPLE | 0.227
67 | HMILNPQELGERIRKLRLKRNKTQSYFADMLYISSSYLALIESGKRVPNLDLLIHIAKFTDVTLDYLVFG | -0.573
68 | HMILVLKPGAPEDLKNELIHDIEKMGLRVHVSVGEGTTIIGLIGDTSKISKYTFSSYEIVSNVLRVT | -0.35
